Target: T1, extracellular domain (residues 21-643) of the human ErbB3 receptor (Homo sapiens, UniProt P21860)
T1 construct: ErbB3 receptor (HER3), human, extracellular domain, residues 21-643; The ErbB3 gene fragment is followed by a hexahistidine tag and a FLAG-tag; also called HER3; extracellular domain of ErbB3; source: CHO-T-HC cells, transfected (pEE vector), purified from culture fluid (HisTrap HP, Superdex 200 SEC)
Assay: SPR; Biacore T200; ErbB3 extracellular domain immobilised on CM5 chip by amine coupling; BCD090-M2 injected at 1 uM down to 0.49 nM in 10 mM HEPES pH 7.4, 0.15 M NaCl, 50 ug/ml BSA; 37°C; equilibrium fit of response against concentration; mean of three experiments
Conditions: both partners purified

T1 sequence (P21860 21-643): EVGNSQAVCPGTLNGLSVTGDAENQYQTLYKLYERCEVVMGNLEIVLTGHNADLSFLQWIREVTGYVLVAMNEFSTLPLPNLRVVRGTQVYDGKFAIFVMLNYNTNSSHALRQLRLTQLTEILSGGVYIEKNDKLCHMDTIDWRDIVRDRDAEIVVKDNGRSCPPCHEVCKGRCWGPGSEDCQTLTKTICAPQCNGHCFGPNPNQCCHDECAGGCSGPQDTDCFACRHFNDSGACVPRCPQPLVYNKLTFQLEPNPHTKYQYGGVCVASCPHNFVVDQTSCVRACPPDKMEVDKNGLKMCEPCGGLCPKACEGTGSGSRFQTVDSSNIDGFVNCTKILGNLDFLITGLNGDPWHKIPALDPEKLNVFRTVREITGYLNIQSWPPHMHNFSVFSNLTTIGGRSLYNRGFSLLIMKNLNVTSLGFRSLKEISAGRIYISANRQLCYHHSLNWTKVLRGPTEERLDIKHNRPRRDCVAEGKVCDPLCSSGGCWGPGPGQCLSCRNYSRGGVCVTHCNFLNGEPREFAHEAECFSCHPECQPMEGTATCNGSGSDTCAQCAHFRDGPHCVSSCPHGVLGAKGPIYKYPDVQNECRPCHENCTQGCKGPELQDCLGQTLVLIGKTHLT

B1: llama VHH antibody BCD090-M2 (VHH)
VHH: QVQLVQSGGGLVQAGGSLRLSCAFSGRTFSMYTMGWFRQAPGKEREFVAANRGRGLSPDIADSVNGRFTISRDNAKNTLYLQMDSLKPEDTAVYYCAADLQYGSSWPQRSSAEYDYWGQGTTVTVSS
notes: 128 residues in the PDB entries; a single additional N-terminal glycine is left from the TEV recognition site; Selected by phage display from immunized llamas; also called VHH fragment of the antibody BCD090-M2; not shown: His6, N-terminal, cleaved; SUMO, N-terminal, cleaved
Kd: 15 ± 1 nM

Reference: PMC6097396, “Crystal structures of a llama VHH antibody BCD090-M2 targeting human ErbB3 receptor” (F1000Research, 2018)
